In the nanobody polyreactivity screen of Harvey et al. (2022):

Assay: yeast display, Sf9 membrane polyspecificity reagent, FACS + sequencing; frameworks hold sequencing errors
How it was run: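 Synthetic nanobody libraries on Saccharomyces cerevisiae BJ5465 were galactose-induced for 36–48 hours, stained 1 hour at 4 °C with 10% biotinylated, detergent-solubilized Sf9 membrane reagent and enriched on streptavidin microbeads. FACS then separated cells into low and high (top ~1%) gates by anti-HA (expression) and streptavidin (reagent binding) fluorescence. Genes were colony-PCR amplified, MiSeq 2 × 250 sequenced and CDR-length filtered. A clone's polyreactivity label is that of its gate of origin.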

| Sequence | polyreactivity (PSR sort gate) |
| --- | --- |
| QVQREESGGGLVQAGGSLRLSCAASGSILYYNAMGWYRQAPGKEREFVAGISSSGGSTYYADSVKGRFTISRDNAKNTVYLQMKSLQPEENAVYYCAKRTYWRRGWCFDFWGQGTQVTVSS | high polyreactivity |
| QVQRGESGGGLVQAGGSLRLSCAASAIIIYYYAMGCYRQAPGNERELVAGISYSGGSTYADSVKGRFTISRDNAKLTVYLQMNSLKPEDTAVYYCAAEYEYGGHWYDYWGQGTQETVSS | low polyreactivity |
| QVQRVDSGGGLRQAGGSLRLTCSASGSIFGLYAMGWYRQATGKERELVASISKSGGSTYYADCVKGRFTISRDNAKNTVYLQMNRLKPEDTAVYYCAARQYPRAGFDYWGQGTQVPVSS | high polyreactivity |
| QVQRVDSGGGLVQAGGSLRLTCAASGFTFSQYVMGWYRQAPGKARELVAAISYRGGSTYYADSVKGRFTISRDNAKNTVYVQMNSLKPEDTAVYYCAAVAYSWHNRYDYWGQGTQVTVSS | high polyreactivity |
| QVQRVESAAGLVQAGGSLRLSCAASGSIFWFNSMGWSRPEPGKERELVATIRYSGCSTYYADSVKGRFTISRDNAKKTVYLLMNSLKPDDTAVYYSAAVYRYSRSGYEYWGQGTQVTVSS | high polyreactivity |
| QVQRVESAGGLVQAGGSLRLSCAPSGRILPSNAMGWYRQAPGKERELVAGITSGGSTDYADSVKGRFTISRDNAKNTVYIQMHSLKPEDTAVYYCAADSRRYGVRFDYWGQGTQVTVSS | low polyreactivity |
| QVQRVESGAGLVQAGGILRLSCPASGSIFTNNPMGWSRQAPGKARELVAGISFRGSSTYADSVKGRFTISRDNAKNSVYLQMNSLNPVDPAVYYCAGDGLYWWMYYWGQGTQVTVSS | low polyreactivity |
| QVQRVESGGGIVQAGGTLRLSCAASLRIKDNVMGRYIQAHGKERELVAAITRSAGRTYYADSVKGRFTISRDNAKYTVYLQKNSLKPEDTALYYCAAHAERYGYEYWGQGTQVTVSS | low polyreactivity |
| QVQRVESGGGLFQAGGRLRLSCAASGSISLKYAMGWYRQAPGKERELVATISRGGSTNYADSVKGRFTISRDNAKNTVYIQMNSLKPEDTAVYYCAANYGRPYGTYGYWGQGTQVTVSS | high polyreactivity |
| QVQRVESGGGLFQAGRSLRLSCAASGSTIRRYAMGWYRQAPGKERELVAAMSRGGNTNYADSVKGRFTISRDNATNTVYLQMNCLKPEDTAVYYCAAKLYGGWYRDFAACGMDYWGQGTQVTVCS | high polyreactivity |
| QVQRVESGGGLLQAGRSLRLSCAASGTIFYHYAMGWYRQAPGKERELVAAMTRSGGSTYYADSVKGRFTISRDNAKNTVYLQMNSLNPEDTAVYYCAKDPDSYNFLTSNWYDYWGQGTQVTVCS | low polyreactivity |
| QVQRVESGGGLVQAGASLRLSCAASGSTFLTNAMGWYIQAPGKERELVAAITWSGTSTYADSVKGRFTISRDNAKNTVYLQMNSLKPEDTAVYYCIADGWYYPTDDYWGQGTQVTVSS | low polyreactivity |
| QVQRVESGGGLVQAGGCLRLSSAASGFIFRYNDMGWYRQAPGKERQLVATITGSGTSTYYADSVKGRFTISRDNAKTTVYLQMNSLKPEDTAVYYCAAVTSYWYWYVGYDYWGQGTQVTVSS | high polyreactivity |
| QVQRVESGGGLVQAGGILRLSCAASGSTFKVNVIGWYRHAPRTERDLVSAINQSGGGKYYADSVKGRFTISRDNAKNTVYLQMNSLKPEDTAVYYCAAKIFVLRYVLSQEQRRYNYWGQGTQLTVSS | low polyreactivity |
| QVQRVESGGGLVQAGGRLRLSSSASGSIFPTNTMGLSRQSPGKERELVAAITGSGGSRYYADSVKGRFTISRDNAKNTVYLQMNSLKPEDTAVYYCAARYRVDGVKYGYWGQGTQVTVSS | high polyreactivity |
| QVQRVESGGGLVQAGGSLPLSCAATGRTVRQNAMGWYGQAPGKVSELVAAISSSGTNTHYAVSVKGRFTISRDNANNTVYIVMNRLKPEDTAVYYCAADGWGARRKQYHDNGFWGTGTQVTVSS | high polyreactivity |
| QVQRVESGGGLVQAGGSLRISCAASGLIFYRYAMGRYRQAPGKERELVAAISKRGTSTYYADSVKGRFTISRDNAKNTVYLQMNSLKPEDTAVYYCAADVQEEYDYWGLGTQVTVSS | high polyreactivity |
| QVQRVESGGGLVQAGGSLRLRCAASGFIFWLYAMGWYRQAPAKERELVAAISNGGSTNYADSVKGRFTISRDNAKNTVYLQMNSLKPEDTAVYYCAAKFPRRYYWYDYWGQGTQVTVSS | high polyreactivity |
| QVQRVESGGGLVQAGGSLRLSCAACGLTFRQYAMVWYRQAPGKERELVAAIRSRGGSTYYADSVKGRFTISRDNAKNTVYFQMNSLKPEDTAVYYCAAGGRGWWLYRYNFFSEMDYWGQGTQVTVSS | high polyreactivity |
| QVQRVESGGGLVQAGGSLRLSCAASGFIFEGNAMGWYRQAPGKERELVAAISWSGGRTFYADSVKGRFTISRDHAKNTVYLQMNSLKPEDTAVYYCAAQGRRYGYGDFYYWGQGTQVTVSS | high polyreactivity |
| QVQRVESGGGLVQAGGSLRLSCAASGFIFETYAMGWYRQAPGKERELVAAISWRTGRTYYADSVKGRFTISRDNAKNTVYLQMNSLKPEDTAVYYCNADYGGTSTLKDFDYWGQGTQVTVSS | low polyreactivity |
| QVQRVESGGGLVQAGGSLRLSCAASGFIFGRYAMGWYRQAPGKERELVAASTWGGDSTYYADSVKGRFTISRDNAKNTVYLQMNSLKPEDTAVYYCAAYPQRRFYWQYRYDYWGQGTQVTVSS | high polyreactivity |

| Sequence | polyreactivity (PSR sort gate) |
| --- | --- |
| QVQRVESGGGLVQAGGSLRLSCAASGFIFIRNAMGWYRQAPGKERELVAAISSGGRTYYADSVKGRFTISRDNAKNTVYLQMNSLQPEDTAVYYCATRPHRPRGHSVGQYDYWGQGTQVTVSS | high polyreactivity |
| QVQRVESGGGLVQAGGSLRLSCAASGFTFDRYAMGWYRQAPGKERELVAAISRSGGSTHYADSVKGRFTISRDNAKNTVYLQMNSLKPEDTAVYYCAKVYAPITALYFPTDRGDYCGQGTQVTVSS | high polyreactivity |
| QVQRVESGGGLVQAGGSLRLSCAASGFTFRAYTMGWYRQAPGKDRELVAAITYSGGRRYYADSVKGRFTISRDNAKTTVYLQMNSLNPEDTAVYYCAKRGWALSEYYYWGQGTQVTVSS | high polyreactivity |
| QVQRVESGGGLVQAGGSLRLSCAASGFTFVEYAMGWYRQAPGKERELVAAISVSGGSTYYADSVKGRFTISRDNAKNTVYLQMNSLKPEDTAVYYCNATGYQVGSITIYDYWGQGSQVTVSS | low polyreactivity |
| QVQRVESGGGLVQAGGSLRLSCAASGFTLDYYTMGWYRQAPGKERELVAAISWIGTSTYYADSVKGRFTISRDNAKNTVYIQMNSLKPEDTAVYYCAAVGASVDDYYWGQGSQVTVSS | high polyreactivity |
| QVQRVESGGGLVQAGGSLRLSCAASGITFDRYAMGWYRQAPGKETELVAAISSGGRTNYADSVKGRFTISRDNAKNTVYLQMNSLKPEDTEVYYCSKRRARSGQDYDYWGQGTQVTVSS | low polyreactivity |
| QVQRVESGGGLVQAGGSLRLSCAASGITFGIYVMGWYRQAPGKETELVATISRSDDNTYYADSVKGRFTISRDNAKNTVYLQMNSLKPEDTAVYYCAADGVISAWYSSRDDYWGQGTQVTVSS | low polyreactivity |
| QVQRVESGGGLVQAGGSLRLSCAASGITFWPYAMGWYRQAPGKERELVAAIRASVGRTYYADSVKGRFTISRDNAKNTVYLQMNSLKPEDTAVYYCNAYGRYGKFRVEYDYWGQGTQVTVSS | low polyreactivity |
| QVQRVESGGGLVQAGGSLRLSCAASGLIFRKYAMGWYRQEPGKERELVAAISLRGVSTYYADSVKGRFTISRDNAKNTVYLQMNRLKPEDTAVYYCAADVYYPLGYGLDYWGQGYQVTVSS | low polyreactivity |
| QVQRVESGGGLVQAGGSLRLSCAASGLILVPNTMGWYRQAPGKVRELVAAISYSGGGTYYADAVKGRFTISRDNAKNTVYLQMNSLKPEETAVYDCAAYVKRESAPYGYWGQGTQVTVSS | low polyreactivity |
| QVQRVESGGGLVQAGGSLRLSCAASGNTFKYNTMGWYRQAPGTERELVAAISSGGNTKYADSVKGRFTISRDNGKNTDYFQMNSLKPEDTAVNYCATTFPRKGRFRYDYWGQGTQVTVSS | high polyreactivity |
| QVQRVESGGGLVQAGGSLRLSCAASGNTFYGYTMGWYRQAPGKERELVAAISGRGGSTTYADSVKGRFTISRDNEKNTVYCQMNSLKPEDTAVYDCAANSVYIRTRFYYWGQGTQETVSS | high polyreactivity |
| QVQRVESGGGLVQAGGSLRLSCAASGRIFGLNAMGWYRQAPGKERELVAAIDRSGASTYYADSVKGRFTISRDNAKNTVYLQMNSLKPEDSAVYYCAARIRTSDRRYYLGQGTQVTVSS | high polyreactivity |
| QVQRVESGGGLVQAGGSLRLSCAASGRIFRYYAMGWYRQAPGKERELVAAISRSSGSTYYADSVKGRFTISRDNAKNTVYLQMNSLKPEDTAVYYCATAFYSYGRYPQSYYWGQGTQVTVSS | high polyreactivity |
| QVQRVESGGGLVQAGGSLRLSCAASGRIFVAYVMGWYRQAPGKERELVAAITRSGGRTYYADSVKGRFTISRDNAKNTVYLQMNSLKPEDTAVYYCATDSGWSTYDYWGQGTQVSVSS | high polyreactivity |
| QVQRVESGGGLVQAGGSLRLSCAASGRTFPPYAMGWYRQAPGKERELVASIRRGGSTHYADSVKGRFTISRDNAKNTVYLQMNSLKPEDTAVYYCNADVIFGYTHYNYWGQGTQVTVSS | high polyreactivity |
| QVQRVESGGGLVQAGGSLRLSCAASGRTFVFYDMGWYRQAPGKERELVAAITSSGGRTYYADSVKGRFTISRDNAKNTVYLQMYRVKPEDTAVYYCAAPYYPYKYDSWGQGTQVTVSS | low polyreactivity |
| QVQRVESGGGLVQAGGSLRLSCAASGSIFGVYTRGWYRQAPGKESELVAAITSAGSTYADSVKGRFTISRDNAKNTVYLQMNSLKPEDTAVYYCAAGFHKRVTPEILYDYWGQGTQVTVSS | low polyreactivity |
| QVQRVESGGGLVQAGGSLRLSCAASGSIFRFYAMGWYRQARGKERELVAAITSGGSTNYADSVKGRFTISRDNAKNTVFLQMKSLKPEDTAVYYFNAGLFYKPQYGYWGQGTQVTVSS | high polyreactivity |
| QVQRVESGGGLVQAGGSLRLSCAASGSIFSYYARGLYRQAPGNESELVAVINSGSTNYAASVKGRFTISRDNAKNTVYIHMNSLKPEDTAVYYCAADSLLYLLEQYTTAPYDYWAQGTQVTVSS | low polyreactivity |
| QVQRVESGGGLVQAGGSLRLSCAASGSIVQQYAMGWYRQAPGKERELVAAISYSGGTTYYADSVKGRFTISRDNAKTTVYLQMNSLKPEDTAVYYCAAYYPSGSYDYYWGQGTQVTVSS | low polyreactivity |
